The labels stand for the following.
B1: 1E1-G5 anti-CD123 rat IgG (hybridoma supernatant) (antibody, V domains shown)
VH: QVQLQESGPTLVKPGDSVKMSCKAFGYTFTDHIIHWVKQSHGKSLEWIGYINPYSGGTNYNEKFKSKATLTVDKSSSTAYMEFSRLTSEDSAICYCALNYGSYYAMDAWGQGTSVTVSS
VL: DIQMTQSPASLSASLGQTVTIECRPSEDIYSNLAWFQQKPGSSPQLLIYDANNLADGVPSRFSGSGSGTQYSLKINSLQSEDVASYFCQQYNKYPYTFGTGTKLELK
notes: rat IgG; also called BFX - 1E1
B2: 8B11-B7 anti-CD123 rat IgG (hybridoma supernatant) (antibody, V domains shown)
VH: B1 VH with K13N, F25S, T58A, E62G, V72I, E89G, C94Y
VL: B1 VL with Q17E, P25T, E27K, K39E, S42N, N52S, K74Q, S77N, Q89H, K93N
notes: rat IgG; also called BFX - 8B11
B3: 9F6-G3 anti-CD123 rat IgG (hybridoma supernatant) (antibody, V domains shown)
VH: B1 VH with F25S, H32Y, G56D, S76T, C94Y, Y95F
VL: B1 VL with Q17E, Y30H, L33V, F36Y, S42N, N52S, Q89H, K93I, T100S
notes: rat IgG; also called BFX - 9F6
B4: 6B10-E4 anti-CD123 rat IgG (hybridoma supernatant) (antibody, V domains shown)
VH: EVQLVESGGGLVQPGRSLKLSCAASGFTFSHYNMAWVRQAPKKGLEWVATITYDDHSTYYRDSVKGRFTISRDTAKSTLYLQMDSLRSEDTATYYCARLVNYAFAYWGQGTLVTVSS
VL: NIVMTQSPKSMSISVGDRVTMNCKASQTVGNNIAWYQQKPGLSPQLLIDYASNRYTGVPNRFTGGGYGTDFILTINSVQAEDAAFYYCQRMYNSPTFGGGTKLELK
notes: rat IgG; also called BFX - 6B10
B5: 6C10-C4 anti-CD123 rat IgG (hybridoma supernatant) (antibody, V domains shown)
VH: EVKLQESGPSLVQPSETLSLTCTVSGFSLTSYSVHWVRQHSGKSLEWMGRMWNDGDTSYNSAFTSRLSISRDTSKGQVFLKMNSLQTEDTGTYYCARGHRTPFDYWGQGVMVTVSS
VL: DIVMTQSPSSLAVSAGETVTINCKSSQSFLSSGDERNYVAWYQHKPGQSPKLLIYWASTRHSGVPDRFIGSGSGTDFTLTISSVQAEDLAIYYCQQYYDTPLTFGSGTKLEIK
notes: rat IgG; also called BFX - 6C10
B6: 9B8-G6 anti-CD123 rat IgG (hybridoma supernatant) (antibody, V domains shown)
VH: EVKLQESGPSLVQSSQTLSLTCTVSGFSLTSYHIHWVRQPPGKGLEWMGVMWSDGDTSYSSALKSRLSISRDTSQSQVFLKMNSLQTEDTATYYCARGDYSSYIYLWFAYWGQGTLVTVSS
VL: B5 VL
notes: rat IgG; also called BFX - 9B8
B7: 9D7-C8 anti-CD123 rat IgG (hybridoma supernatant) (antibody, V domains shown)
VH: B6 VH with P40T, S60N, D99Y, I104L
VL: B5 VL with A15E, E35G, R36K, H44Y, H61Q, S83T
notes: rat IgG; also called BFX - 9D7
B8: 5A5-B4 anti-CD123 rat IgG (hybridoma supernatant) (antibody, V domains shown)
VH: QIQIVQSGSDVTSTCNGCGTCYFSGFSLSTTGICVSWIRQPSGKGQEWLADFCWDDGKGYNPSLKNRLSISKDTSNNQVFLKITSVDTADTATYYCARRRVYYGIYFDYWGQGVMVTVSS
VL: DIVMTQSPALAVSPGERVSISCRASNSVSTRMHWYQQKPGQQPKLLIYGASNLESGVPARFSGSGSGTDFTLTIDPVEADDIATYFCQQSWNDPLTFGSGTKLEIK
notes: rat IgG; also called BFX - 5A5
B9: 2F8-D6 anti-CD123 rat IgG (hybridoma supernatant) (antibody, V domains shown)
VH: QVQLKESGPGLVQPSQTLSLTCTVSGFSLTSYGVSWVRQPPGKGLEWIATISSAGSTYYDLVLKSRLSITRDTSKSQVFLKVHSLQTEDTAIYLCARDAPVFNYGSYNAMDSWGQGTSVTVSS
VL: DIQMTQSPSFLSATVGDRVTINCKASQNINKYLNWYQQKLGEAPKRLIYNTNSLQTGIPSRFSGSGSGTDYTLTISSLQPEDVATYFCLQHKSGLTFGSGTKLEIK
notes: rat IgG; also called BFX - 2F8
B10: 3E3-D3 anti-CD123 rat IgG (hybridoma supernatant) (antibody, V domains shown)
VH: QVQLQESGPGLVQPSQTLSLTCTVSGFSLTTYDVHWVRQPPGKGLEWMGRIQNGGITDYNSALKSRLIISRDTSKSQVFLKMNSVQTEDTAMYFCAKTGSYFYAFDHWGQGTLVTVSS
VL: QFVLTQPNSVSTNLGSTVKLSCKRNTGNIGSNYVNWYQQHEGRSPTTMIYRDDKRPDGVPDRFSGSIDRSSNSALLTINNVQTEDEADYFCQSYSSGINIIFGGGTKLTVL
notes: rat IgG; also called BFX - 3E3
B11: 2B8-F3 anti-CD123 rat IgG (hybridoma supernatant) (antibody, V domains shown)
VH: EVQLVESGGGLVQPGRSLKLSCAASGFTFSDYNMAWVRQAPKKGLEWVATILYDGGRTYYRGSVKGRFTISRDNAKSTLYLRMDSLRSEDTATYYCATHSRGTDYFDYWGQGVMVTVSS
VL: EIVLTQSPTSMTASPGEQVTITCRASSSINYMHWYQQKPGASPRPWIYETSKLASGVPDRFSGSASGTSYSLTINNMEAEDAATYYCQQWNYPSWTFGGGTKLELK
notes: rat IgG; also called BFX - 2B8

Numbering of substitutions follows the chain as printed.

T2 sequence (chain, as listed by the source limits assumed): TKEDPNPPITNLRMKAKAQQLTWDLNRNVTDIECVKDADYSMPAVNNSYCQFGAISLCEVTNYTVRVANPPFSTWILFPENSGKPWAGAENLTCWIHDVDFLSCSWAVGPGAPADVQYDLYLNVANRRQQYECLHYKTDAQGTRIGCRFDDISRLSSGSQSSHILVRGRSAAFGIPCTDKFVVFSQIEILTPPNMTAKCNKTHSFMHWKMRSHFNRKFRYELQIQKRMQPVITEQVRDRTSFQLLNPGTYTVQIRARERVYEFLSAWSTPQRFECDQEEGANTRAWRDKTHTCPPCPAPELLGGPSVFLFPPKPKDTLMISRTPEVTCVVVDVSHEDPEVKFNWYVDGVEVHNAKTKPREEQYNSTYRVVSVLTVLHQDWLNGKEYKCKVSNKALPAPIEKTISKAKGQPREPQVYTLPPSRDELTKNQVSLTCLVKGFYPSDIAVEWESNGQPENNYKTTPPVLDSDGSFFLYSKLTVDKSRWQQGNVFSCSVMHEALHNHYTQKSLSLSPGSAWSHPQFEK
T3 sequence (chain, as listed by the source limits assumed): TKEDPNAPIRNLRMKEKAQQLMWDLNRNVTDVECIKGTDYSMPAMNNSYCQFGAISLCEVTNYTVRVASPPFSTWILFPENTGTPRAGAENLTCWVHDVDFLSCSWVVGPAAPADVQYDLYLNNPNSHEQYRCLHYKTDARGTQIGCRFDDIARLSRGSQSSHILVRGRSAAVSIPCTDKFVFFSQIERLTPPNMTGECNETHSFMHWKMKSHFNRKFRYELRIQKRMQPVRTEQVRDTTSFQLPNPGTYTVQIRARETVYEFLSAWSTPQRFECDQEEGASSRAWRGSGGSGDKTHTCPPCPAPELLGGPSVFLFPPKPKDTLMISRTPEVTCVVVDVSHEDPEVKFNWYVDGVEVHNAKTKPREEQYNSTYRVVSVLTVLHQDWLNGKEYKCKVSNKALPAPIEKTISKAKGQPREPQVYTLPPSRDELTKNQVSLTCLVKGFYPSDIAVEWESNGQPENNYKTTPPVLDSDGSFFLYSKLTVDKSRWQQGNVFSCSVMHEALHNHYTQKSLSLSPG
T1 sequence (P26951 19-378): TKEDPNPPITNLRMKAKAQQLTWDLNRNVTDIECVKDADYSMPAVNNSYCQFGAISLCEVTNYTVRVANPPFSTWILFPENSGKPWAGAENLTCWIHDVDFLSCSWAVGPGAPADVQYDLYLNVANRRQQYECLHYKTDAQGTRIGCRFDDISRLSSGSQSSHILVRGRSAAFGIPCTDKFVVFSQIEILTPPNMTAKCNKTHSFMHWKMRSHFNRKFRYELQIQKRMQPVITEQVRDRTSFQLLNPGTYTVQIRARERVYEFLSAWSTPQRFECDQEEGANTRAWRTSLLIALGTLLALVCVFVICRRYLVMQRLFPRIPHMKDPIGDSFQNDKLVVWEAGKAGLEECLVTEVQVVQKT

The first assay concerns the target T1, human CD123 (IL3RA) on cells (human, UniProt P26951 19-378).
T1 construct: also called CD123 transfected HEK293; THP-1
Description: flow cytometry, CD123 transfected HEK293, hybridoma supernatant. The method, then: Cells were resuspended in 200 μl Stain Buffer with FBS per well and were measured using the MACSQuant (Miltenyi Biotec) or LSRII (BD) flow cytometer. Further data analyses were performed using the FlowJo software (Tree Star, Inc.). Read out was percentage of cells positive for antibody binding. Cells treated only with the secondary but no primary antibody were used to set the gates. Curves were calculated by XLfit (Algorithm 205).
On the technique in general: A flow cytometer gives signals particle by particle.
The molecule B1 displayed an EC50 of 2.2 ng/mL.

Take B2: the EC50 was 0.4 ng/mL.

B3 yielded an EC50 of 1.3 ng/mL.

The molecule B4 displayed an EC50 of 5 ng/mL.

In turn, B5 had an EC50 of 6.1 ng/mL.

B6 returned an EC50 of 1.2 ng/mL.

For the molecule B7, the EC50 came to 0.9 ng/mL.

As for B8, the EC50 worked out at 10.1 ng/mL.

The molecule B9 came in with an EC50 of 3.4 ng/mL.

As for B10, a half-maximal response (EC50) required 2 ng/mL.

Turning to B11, the EC50 stood at 5.5 ng/mL.

The next assay addresses T2, human CD123 Strep-II tagged Fc-fusion protein (human).
T2 construct: also called human CD123-Fc; recombinant CD123
Description: SPR Proteon XPR36, rat IgG captured, CD123-Fc analyte. Here is the method:
(§1) Screening of anti-CD123 rat IgGs for binding affinities to human CD123 and cross-reactivities to cyno CD123 was performed with hybridoma supernatants using a Proteon XPR36 (Biorad) in a one-shot kinetics approach. A capture assay was established using a goat anti-rat IgG (112-005-071, Jackson Immuno Research). The capture antibody was coated on GLC chips (176-5011, Biorad) to approx. 8000 RU in the vertical direction using the amine coupling kit (176-2410, Biorad). […] Binding kinetics with human and cyno CD123-Fc fusion protein was measured at 100 μl/min in the horizontal direction with 120 sec. and 600 sec. for association and dissociation, respectively. The CD123-Fc proteins were used in twofold dilutions from 6 nM to 100 nM. PBSET buffer (176-2730, Biorad) was used as assay buffer. Regeneration was achieved by injection of 10 mM Glycine buffer pH 1.5 for 18 sec at 30 μl/min. Data processing and analysis was performed using ProteonManager software v3.0. Fitting of the sensorgrams was done with a 1:1 Langmuir model.
With B1, the Kd stood at 0.23 nM, the koff turned out to be 0.00011 s⁻¹ and the kon came to 460000 M⁻¹ s⁻¹.

In turn, B2 showed a Kd of 0.01 nM, a koff of 6.2e-06 s⁻¹ and a kon of 470000 M⁻¹ s⁻¹.

B3 registered a Kd of 0.04 nM, a koff of 6.7e-06 s⁻¹ and a kon of 180000 M⁻¹ s⁻¹.

Consider B4, for which the dissociation constant Kd is 0.15 nM, the koff stood at 1.5e-05 s⁻¹ and the kon was determined as 230000 M⁻¹ s⁻¹.

With B5, the Kd was 0.75 nM, the koff amounted to 0.00014 s⁻¹ and the kon was determined as 180000 M⁻¹ s⁻¹.

Consider B6, for which binding was put at a Kd of 0.19 nM, the koff turned out to be 0.00028 s⁻¹ and the kon was determined as 1.5e+06 M⁻¹ s⁻¹.

With B7, the Kd came out at 0.3 nM, the koff came out at 0.00032 s⁻¹ and the kon is 1e+06 M⁻¹ s⁻¹.

With B8, the Kd is 1.1 nM, the koff came out at 0.00012 s⁻¹ and the kon turned out to be 130000 M⁻¹ s⁻¹.

The molecule B9 showed a Kd of 0.53 nM, a koff of 6.6e-05 s⁻¹ and a kon of 130000 M⁻¹ s⁻¹.

As to B10, the Kd was 0.4 nM, the koff turned out to be 6.4e-05 s⁻¹ and the kon came to 160000 M⁻¹ s⁻¹.

B11 gave a Kd of 0.018 nM, a koff of 1.2e-05 s⁻¹ and a kon of 660000 M⁻¹ s⁻¹.

A further assay has as its target T3, Macaca fascicularis CD123 Fc-fusion protein (Macaca fascicularis).
T3 construct: also called cyno CD123-Fc
The assay is described as above. Here is the method: as §1
The molecule B1 returned a Kd of 0.72 nM.

With B2, the Kd was found to be 0.1 nM.

Turning to B3, binding was characterised by a dissociation constant (Kd) of 0.5 nM.

B4: the affinity, expressed as Kd, was 0.1 nM.

With B5, binding was put at a Kd of 0.79 nM.

The molecule B6 showed a Kd of 0.17 nM.

In turn, B7 yielded a Kd of 0.07 nM.

For B8, the Kd is 0.05 nM.

Regarding B9, the Kd was determined as 0.51 nM.

On to B10, for which binding was put at a Kd of 0.12 nM.

Molecule B11 showed a Kd of 0.77 nM.

The EC50 is the concentration giving half of the maximal effect. Lower therefore signals higher potency in that assay. One may read the Kd as a measure of binding affinity in units of concentration. A higher Kd goes with a looser complex. The term koff denotes the rate constant with which the complex falls apart. A low value points to slow dissociation. What is called kon is the rate constant with which the complex forms. Low values mean slow association, high ones fast association.

These data come from patent US20210292423A1 (published 2021).
